Assay results: patent US11358986B2, “IL-2RBETA binding compounds” (MEDIKINE, INC., priority 2018, dated 2022)
Ends that are not written are not given here.

Key:
IL-2Rγc subunit = biological target: T1, IL-2Rγc subunit (Homo sapiens, UniProt P31785); assay: Competitive binding of synthetic test peptides against phage clones on IL-2Rγc; conditions: for Competition with phage clone peptide SEQ ID NO: 198: phage clone of IL-2Rγc family 1A; for Competition with phage clone peptide SEQ ID NO: 224: phage clone of IL-2Rγc family 1B; for Competition with phage clone peptide SEQ ID NO: 236: phage clone of IL-2Rγc family 2; for Competition with phage clone peptide SEQ ID NO: 248 or 1051: phage clone of IL-2Rγc family 3; for Competition with phage clone peptide SEQ ID NO: 266: phage clone of IL-2Rγc family 4; for Competition with phage clone peptide SEQ ID NO: 948: phage clone of IL-2Rγc family 5
T1 construct: Fc; purchased ACRObiosystems, Inc. ILG-H5256
T1 sequence (P31785 23-254): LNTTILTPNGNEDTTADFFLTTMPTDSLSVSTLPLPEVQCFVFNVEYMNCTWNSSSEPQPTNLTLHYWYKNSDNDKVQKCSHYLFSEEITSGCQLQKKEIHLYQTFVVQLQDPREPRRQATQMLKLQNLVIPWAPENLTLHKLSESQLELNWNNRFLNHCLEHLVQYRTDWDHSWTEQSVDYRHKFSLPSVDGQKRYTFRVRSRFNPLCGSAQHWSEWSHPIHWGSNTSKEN
Description: (§1) Competitive binding assays were performed to characterize the IL-2R binding sites for certain IL-2Rβ and to IL-2Rγc ligands.
(§2) Phage binding to the immobilized IL-2Rβ ECD was detected by staining with antibody against phage coat proteins (anti-phage Ab), staining with labeled secondary antibody against the anti-phage Ab, and scored by reading OD in the microtiter plate optical reader.
(§3) The ELISA signal for each phage binding in the presence and absence of the test peptides was compared to determine which synthetic peptides competed with which phage peptides for binding to the IL-2Rβ subunit.
A similar study was performed to evaluate the binding of IL-2Rγc ligands.

[1] = biological target: T2, extracellular domain (ECD) of IL-2Rβ (Homo sapiens, UniProt P14784); assay: Competitive binding of synthetic test peptides against phage clones on immobilized IL-2Rβ ECD; conditions: for Competition with phage clone peptide SEQ ID NO: 58: phage clone of IL-2β family 1; for Competition with phage clone peptide SEQ ID NO: 170: phage clone of IL-2β family 2A; for Competition with phage clone peptide SEQ ID NO: 83: phage clone of IL-2β family 2B; for Competition with phage clone peptide SEQ ID NO: 1034 or 1084: phage clone of IL-2β family 2C; for Competition with phage clone peptide SEQ ID NO: 1044: phage clone of IL-2β family 4
T2 construct: Fc; purchased ACRObiosystems, Inc. ILB-H5253
T2 sequence (P14784 27-239): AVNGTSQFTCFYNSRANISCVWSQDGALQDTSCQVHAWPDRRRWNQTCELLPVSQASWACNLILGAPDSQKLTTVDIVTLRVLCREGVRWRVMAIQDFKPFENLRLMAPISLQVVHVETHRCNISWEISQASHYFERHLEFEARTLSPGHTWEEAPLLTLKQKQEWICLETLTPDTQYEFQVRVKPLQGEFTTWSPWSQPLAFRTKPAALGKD
Description: as §1
Representative phage clones displaying peptides from IL-2Rβ ligand families were bound to the extracellular domain (ECD) of IL-2Rβ immobilized in microtiter wells. Phage binding was conducted in the presence and absence of synthetic test peptides to determine if phage peptides and test peptides competed for binding to the same sites on IL-2Rβ. Synthetic test peptides were selected to represent peptides from IL-2Rβ ligand families, as well positive and negative control peptides.
as §2, §3

NK-92 cells = assay: STAT5 phosphorylation in NK-92 cells; type: cell-based, human; conditions: Western Blot, 0.1, 1 and 10 μM, 30 min
Description: NK-92 cells were seeded in a 24-well plate at 4×10^5 cells, in 1 mL starvation medium (SM), and incubated overnight at 37° C., 5% CO2. The starvation medium contained RPMI 1640+20% FBS+2 mM L-glutamine+1 mM NaPyr+10 mM HEPES+0.1 mM BME (no rhIL-2 supplement).
Treatment mixtures were of 1 pg/mL Anti-hIL-2 neutralizing antibody (0.2 mg/mL stock) or goat IgG control (1 mg/mL stock) were prepared.
The treatment mixtures and the antibody mix were added to the cells for 30 min at 37° C., 5% CO2. Each sample was then transferred to a 1.5 mL microfuge tube and spun down at 1,500 RPM for 5 minutes. The cells were washed in 1 mL PBS and centrifuged again.
A phosphatase and protease inhibitor cocktail (Thermo #78442) were added to mPER buffer at a 1:100 dilution. After the cells were pelleted, 50 μL of mPER buffer was added to each sample and pipetted repeatedly to homogenize.
The lysates were centrifuged at 14,000 RPM for 5 min at RT. The supernatants were transferred to clean tubes and stored frozen at −80° C.
The treatment reagents included Anti-STAT5 Antibody (rabbit), Cell Signaling No. 94205S; Anti-pSTAT5 Antibody (rabbit), Cell Signaling No. 4322S; and Goat anti-rabbit IgG-HRP, Jackson Immunoresearch No. 111-035-144.

| Substance | Competition with phage clone peptide SEQ ID NO: 198 (IL-2Rγc subunit) | Competition with phage clone peptide SEQ ID NO: 224 (IL-2Rγc subunit) | Competition with phage clone peptide SEQ ID NO: 236 (IL-2Rγc subunit) | Competition with phage clone peptide SEQ ID NO: 248 or 1051 (IL-2Rγc subunit) | Competition with phage clone peptide SEQ ID NO: 266 (IL-2Rγc subunit) | Competition with phage clone peptide SEQ ID NO: 948 (IL-2Rγc subunit) | Competition with phage clone peptide SEQ ID NO: 58 [1] | Competition with phage clone peptide SEQ ID NO: 170 [1] | Competition with phage clone peptide SEQ ID NO: 83 [1] | Competition with phage clone peptide SEQ ID NO: 1034 or 1084 [1] | Competition with phage clone peptide SEQ ID NO: 1044 [1] | also measured |
| --- | --- | --- | --- | --- | --- | --- | --- | --- | --- | --- | --- | --- |
| 58 (YDCRIAQVGELCDL) [Peptide 58] | − | − | − | − | − | − | +^1 (Peptide competes with phage binding.) | + (Peptide competes with phage binding.) | + (Peptide competes with phage binding.) | + (Peptide competes with phage binding.) | − |  |
| 58 (YDCRIAQVGELCDL) [compound 58] |  |  |  |  |  |  |  |  |  |  |  | competition for binding to the binding site of the IL-2Rγc subunit with the group of IL-2Rγc ligands (IL-2Rγc subunit): does not compete |
| 169 (NMCLVGDYWPSCQI) [Peptide 169] |  |  |  |  |  |  | + (Peptide competes with phage binding.) | + (Peptide competes with phage binding.) | + (Peptide competes with phage binding.) | + (Peptide competes with phage binding.) | − |  |
| 202 (RTCTEWENVVLCWV) [Peptide 202] | +^1 (Peptide competes with phage binding.) | + (Peptide competes with phage binding.) | + (Peptide competes with phage binding.) | + (Peptide competes with phage binding.) | + (Peptide competes with phage binding.) | − |  |  |  |  |  |  |
| 224 (DCSMWEGVELCW) [Peptide 224] | + (Peptide competes with phage binding.) | + (Peptide competes with phage binding.) | + (Peptide competes with phage binding.) | + (Peptide competes with phage binding.) | + (Peptide competes with phage binding.) | − | − | − | − | − | − |  |
| 224 (DCSMWEGVELCW) [compound 224] |  |  |  |  |  |  |  |  |  |  |  | competition for binding to the binding site of the IL-2Rβ subunit with the group of IL-2Rβ ligands [1]: does not compete |
| 236 (MCWLEWGEWVGSCL) [Peptide 236] | + (Peptide competes with phage binding.) | + (Peptide competes with phage binding.) | + (Peptide competes with phage binding.) | + (Peptide competes with phage binding.) | + (Peptide competes with phage binding.) | − |  |  |  |  |  |  |
| 948 (SLLKCYNASTCASVF) [Peptide 948] | −^2 | − | − | − | − | + (Peptide competes with phage binding.) |  |  |  |  |  |  |
| 948 (SLLKCYNASTCASVF) [compound 948] |  |  |  |  |  |  |  |  |  |  |  | competition for binding to the binding site of the IL-2Rγc subunit with the group of IL-2Rγc ligands (IL-2Rγc subunit): does not compete |
| 1041 (WESWNVGDLVNLVNW) [compound 1041] |  |  |  |  |  |  |  |  |  |  |  | competition for binding to the binding site of the IL-2Rβ subunit with the group of IL-2Rβ ligands [1]: does not compete |
| 1042 (CYEVGDYCQSPL) [Peptide 1042] |  |  |  |  |  |  | + (Peptide competes with phage binding.) | + (Peptide competes with phage binding.) | + (Peptide competes with phage binding.) | + (Peptide competes with phage binding.) | − |  |
| 1044 (RSCYYKRPRLWCSE) [Peptide 1044] |  |  |  |  |  |  | −^2 | − | − | − | + (Peptide competes with phage binding.) |  |
| 1044 (RSCYYKRPRLWCSE) [compound 1044] |  |  |  |  |  |  |  |  |  |  |  | competition for binding to the binding site of the IL-2Rβ subunit with the group of IL-2Rβ ligands [1]: does not compete |
| Compound A: heterodimer of SEQ. ID. NO: 58 and SEQ ID. NO. 224 (chain 1 YDCRIAQVGELCDL; chain 2 DCSMWEGVELCW; cysteine pairing not given here; also: heterodimer) |  |  |  |  |  |  |  |  |  |  |  | STAT5 phosphorylation (pSTAT5) (NK-92 cells): induced |
| Compound B: heterodimer of SEQ. ID. NO: 58 and SEQ ID. NO. 237 (chain 1 YDCRIAQVGELCDL; chain 2 LCFSEFLGEWVDCN; cysteine pairing not given here; also: heterodimer) |  |  |  |  |  |  |  |  |  |  |  | STAT5 phosphorylation (pSTAT5) (NK-92 cells): induced |
| SEQ ID NO: 248 or 1051: IL-2Rγc family 3 test peptide, SEQ ID NO: 248 or its modified form SEQ ID NO: 1051 (DLSDLSTFWLSQ; not fully specified) | + (Peptide competes with phage binding.) | + (Peptide competes with phage binding.) | + (Peptide competes with phage binding.) | + (Peptide competes with phage binding.) | + (Peptide competes with phage binding.) | − |  |  |  |  |  |  |
